Positions of bridges follow the written chain, without caps; N, C: chain ends. No end group written: not given here.

Data on five molecules can be found in patent US20030073628A1.

First the molecules themselves.
B1: SP316 (peptide)
chain: ECELCVNVACTGCL
modifications: disulfide 2-10, 5-13
B2: [Glu^2, Glu3]-UG (SP302) (peptide)
chain: NEECELCVNVACTGCL
modifications: disulfide 4-12, 7-15
B3: [Glu^2]-UG (SP303) (peptide)
chain: NEDCELCVNVACTGCL
modifications: disulfide 4-12, 7-15
B4: [Glu^3]-UG (SP304) (peptide)
chain: NDECELCVNVACTGCL
modifications: disulfide 4-12, 7-15
B5: human uroguanylin, bicyclo [4,12; 7,15] (SP301) (peptide)
chain: NDDCELCVNVACTGCL
modifications: disulfide 4-12, 7-15

The target of the experiment is guanylate cyclase receptor (on human T84 colon carcinoma cells) (human). The experiment is described as follows: cell-based or functional assay.
In turn, B1 displayed a cGMP Level (pmol/well), T84 cells, 1 micromolar peptide for 30 minutes of 275 pmol/well.
The result for B2 reads 225 pmol/well; that for B3, 195 pmol/well; that for B4, 315 pmol/well.
The figure for B5 is 205 pmol/well.
